Reference: the Human Domainome abundance scans (Beltran et al. 2025)
± gives the uncertainty stated by the source.

B1: POU domain, class 3, transcription factor 2, residues 262 to 338; numbered along this chain, P20265 (parent)
chain: EDTPTSDDLEQFAKQFKQRRIKLGFTQADVGLALGTLYGNVFSQTTICRFEALQLSFKNMCKLKPLLNKWLEEADSS

Variants of: B1
Test: abundance fitness (aPCA) (normalised: wild type 0, dead -1); higher = more abundant; growth selection in yeast, the domain comes from the species named
Settings: Homo sapiens

Variant	abundance fitness
L23M	0.048 ± 0.04
L23P	-0.887 ± 0.13
L23T	-0.486 ± 0.06
L23N	-0.254 ± 0.083
L23Q	-0.31 ± 0.063
C48W	-0.108 ± 0.036
C48A	0.086 ± 0.03
C48L	-0.152 ± 0.034
C48F	-0.2 ± 0.075
D2S	0.013 ± 0.04
L67P	-0.654 ± 0.16
L67E	-0.936 ± 0.27
L67W	-0.798 ± 0.16
L67D	-0.759 ± 0.43
G24E	-0.641 ± 0.058
G24M	-0.821 ± 0.072
G24W	-0.784 ± 0.054
N59G	-0.13 ± 0.029
N59W	-0.074 ± 0.04
N59I	0.092 ± 0.079
N59T	-0.051 ± 0.043
N59H	0.017 ± 0.065
E10I	-0.086 ± 0.069
E10Y	0.054 ± 0.05

Variant	abundance fitness
E10N	-0.204 ± 0.075
E10T	-0.103 ± 0.044
E10A	0.006 ± 0.033
A52G	-0.078 ± 0.024
A52Y	-0.534 ± 0.17
A52C	-0.137 ± 0.065
A52H	-0.213 ± 0.1
A52N	0.008 ± 0.062
A52I	-0.632 ± 0.13
L9V	-0.107 ± 0.03
L9T	-0.289 ± 0.048
L9G	-0.605 ± 0.05
L9Q	-0.53 ± 0.061
L9P	-0.483 ± 0.067
T36W	-0.33 ± 0.046
T36S	0.042 ± 0.036
T36Y	0.026 ± 0.071
I21R	-0.195 ± 0.029
I21H	-0.267 ± 0.08
I21N	-0.311 ± 0.075
I21D	-0.567 ± 0.094
I21V	-0.058 ± 0.031
I21C	-0.204 ± 0.05
E51A	-0.855 ± 0.072

Variant	abundance fitness
E51Q	-0.803 ± 0.12
E51K	-0.666 ± 0.096
E51D	-0.638 ± 0.12
N40D	0.016 ± 0.059
N40A	-0.055 ± 0.038
N40T	-0.063 ± 0.051
N40P	-0.005 ± 0.046
N40I	-0.045 ± 0.096
L55I	-0.364 ± 0.099
L55G	-0.61 ± 0.031
F50M	-0.485 ± 0.063
F50G	-0.839 ± 0.057
F50Q	-0.624 ± 0.079
F50T	-0.682 ± 0.076
Q11R	0.001 ± 0.028
Q11G	-0.103 ± 0.027
Q11V	-0.015 ± 0.028
Q11L	-0.04 ± 0.034
Q11F	-0.062 ± 0.068
Q11C	-0.141 ± 0.052
Q11S	-0.046 ± 0.035
Q11N	0.025 ± 0.078
Q11M	0.035 ± 0.046
K62L	-0.007 ± 0.036

Variant	abundance fitness
K62I	-0.045 ± 0.077
K62A	-0.033 ± 0.032
K62M	0.02 ± 0.048
K62W	-0.172 ± 0.038
D29Y	-0.251 ± 0.063
D29N	-0.228 ± 0.063
D29T	-0.428 ± 0.06
D29M	-0.299 ± 0.048
S77K	-0.097 ± 0.074
S77R	0.054 ± 0.045
S77H	-0.011 ± 0.079
S77W	-0.105 ± 0.065
S77L	-0.028 ± 0.05
S77G	0.061 ± 0.036
C61N	-0.107 ± 0.075
C61Q	-0.112 ± 0.048
C61E	-0.147 ± 0.037
C61Y	-0.252 ± 0.077
F42S	-0.268 ± 0.045
F42Q	0.072 ± 0.042
F42Y	0.056 ± 0.06
F42K	-0.148 ± 0.043
F42R	-0.292 ± 0.032
D8C	-0.121 ± 0.057

Variant	abundance fitness
D8G	-0.043 ± 0.027
D8W	-0.418 ± 0.042
D8L	-0.172 ± 0.04
D8A	-0.006 ± 0.038
A33Y	-0.314 ± 0.087
A33S	-0.091 ± 0.039
A33T	-0.113 ± 0.068
A33R	-0.102 ± 0.031
L66P	-0.437 ± 0.064
L66G	-0.536 ± 0.037
L66V	-0.077 ± 0.03
L66W	-0.148 ± 0.034
L66D	-0.767 ± 0.23
L66N	-0.504 ± 0.1
L66F	-0.05 ± 0.048
L66A	-0.137 ± 0.034
R49G	-0.242 ± 0.027
R49E	0.026 ± 0.032
R49C	-0.691 ± 0.1
R49V	-0.868 ± 0.073
R49D	0.006 ± 0.054
R49K	0.05 ± 0.045
R49S	-0.175 ± 0.034
R49M	-0.125 ± 0.042

Variant	abundance fitness
F16R	-0.69 ± 0.04
F16D	-0.854 ± 0.1
F16A	-0.656 ± 0.045
F57N	0.031 ± 0.063
F57S	-0.053 ± 0.033
F57Y	0.056 ± 0.11
Y38M	-0.331 ± 0.052
Y38L	-0.41 ± 0.043
Y38V	-0.103 ± 0.033
Y38Q	-0.141 ± 0.052
Y38D	-0.036 ± 0.045
N68V	0.085 ± 0.077
N68D	-0.182 ± 0.12
N68L	0.004 ± 0.07
N68W	0.004 ± 0.1
N68C	-0.096 ± 0.13
N68Q	-0.313 ± 0.43
L34V	-0.329 ± 0.036
L34S	-0.955 ± 0.093
L34F	-0.732 ± 0.17
L34M	-0.035 ± 0.04
L34Y	-0.895 ± 0.17
L34I	-0.132 ± 0.057
L34N	-0.796 ± 0.15

Variant	abundance fitness
F25V	-0.216 ± 0.033
F25G	-0.983 ± 0.072
F25M	-0.107 ± 0.046
F25K	-0.072 ± 0.053
M60R	-0.706 ± 0.047
M60W	-0.625 ± 0.071
M60I	-0.907 ± 0.29
L32F	-0.25 ± 0.49
L32R	-0.033 ± 0.38
R19Q	-0.113 ± 0.048
R19H	-0.047 ± 0.067
R19V	-0.194 ± 0.033
R19Y	-0.695 ± 0.33
R19D	-0.334 ± 0.11
R19E	-0.116 ± 0.039
L63E	-0.803 ± 0.09
L63C	-0.399 ± 0.05
L63I	-0.148 ± 0.073
L63V	-0.263 ± 0.029
T26P	-0.553 ± 0.082
T26S	-0.014 ± 0.038
T26G	-0.449 ± 0.036
T26E	-0.536 ± 0.058
